Test results taken from patent US20140087995A1 (published 2014).
Numbered stars: 1 amine (or outer) side, 2 acyl side, 3 side chain; on linkers, the order of the positions; unused ones are H or OH. Bridge positions count the residues as written; N and C are the ends. Side chains are listed from the residue outwards. Ends that are not written are not given here. * marks the point of attachment. C20 diacid = O=C(O)CCCCCCCCCCCCCCCCCCC(=O)*; γGlu = O=C(O)[C@H](CCC(=O)[*:2])N[*:1]; AEEA = NCCOCCOCC(=O)O

T1: rat amylin receptor (rat calcitonin receptor + rat RAMP 3) (rat, UniProt P32214 25-516; Q9JJ73 23-147)
T1 construct: whole, on cells; membranes of transiently transfected BHK tk'ts 13 cells (Assay VI); also called rAmylin-R; rat amylin 3(a) receptor
T1 sequence (looked up) 1: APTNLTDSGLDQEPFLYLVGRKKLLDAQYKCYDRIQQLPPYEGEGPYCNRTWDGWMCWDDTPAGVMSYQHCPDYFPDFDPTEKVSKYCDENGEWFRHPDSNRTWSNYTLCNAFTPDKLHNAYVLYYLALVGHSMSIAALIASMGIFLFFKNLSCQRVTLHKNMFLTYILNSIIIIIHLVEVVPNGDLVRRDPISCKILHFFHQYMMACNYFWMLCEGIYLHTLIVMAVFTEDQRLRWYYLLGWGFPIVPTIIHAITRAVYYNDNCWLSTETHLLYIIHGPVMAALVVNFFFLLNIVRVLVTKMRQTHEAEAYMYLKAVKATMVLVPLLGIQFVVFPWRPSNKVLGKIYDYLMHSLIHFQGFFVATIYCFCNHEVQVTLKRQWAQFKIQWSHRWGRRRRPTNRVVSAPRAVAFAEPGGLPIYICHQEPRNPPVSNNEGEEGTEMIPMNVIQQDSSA
T1 sequence (looked up) 2: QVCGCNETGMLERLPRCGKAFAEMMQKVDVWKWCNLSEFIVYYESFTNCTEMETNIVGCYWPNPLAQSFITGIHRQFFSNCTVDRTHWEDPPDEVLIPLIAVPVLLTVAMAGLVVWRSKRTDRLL

T2: rat calcitonin receptor (rat, UniProt P32214 25-516)
T2 construct: whole, on cells; membranes of transiently transfected BHK tk'ts 13 cells (Assay VIII); also called rCTR; rat calcitonin (a) receptor
T2 sequence (looked up): T1 sequence (looked up) 1

T3: human calcitonin receptor (human, UniProt P30988 25-474)
T3 construct: whole, on cells; membranes of stably transfected BHK cells (Assay VII); also called hCTR; hCT
T3 sequence (looked up): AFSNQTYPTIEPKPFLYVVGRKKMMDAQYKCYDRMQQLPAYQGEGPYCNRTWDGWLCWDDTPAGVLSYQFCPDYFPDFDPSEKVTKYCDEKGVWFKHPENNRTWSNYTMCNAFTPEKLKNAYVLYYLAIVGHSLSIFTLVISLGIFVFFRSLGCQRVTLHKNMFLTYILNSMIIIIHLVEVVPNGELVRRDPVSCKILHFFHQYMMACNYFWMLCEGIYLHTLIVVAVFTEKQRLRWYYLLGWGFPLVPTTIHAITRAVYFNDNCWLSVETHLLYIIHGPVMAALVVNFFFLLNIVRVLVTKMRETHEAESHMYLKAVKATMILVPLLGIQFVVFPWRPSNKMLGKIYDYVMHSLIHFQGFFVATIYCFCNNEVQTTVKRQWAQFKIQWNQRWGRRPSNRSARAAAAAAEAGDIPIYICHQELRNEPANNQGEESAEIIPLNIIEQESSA

B1: N^ε1-[(4S)-4-carboxy-4-(19-carboxynonadecanoylamino)butanoyl]-[Arg17,Pro21,Pro27]-h-amylin (peptide)
peptide: K([γGlu-C20 diacid])CNTATCATQRLANFLRHSSPNFGAIPSSTNVGSNTY-NH2
modifications: disulfide 2-7 (inferred)
notes: analogue of human amylin; also called compound 48
B2: N^ε1-[(4S)-4-carboxy-4-(19-carboxynonadecanoylamino)butanoyl]-[Arg17,Pro21,Pro27,Glu35]-h-amylin (peptide)
peptide: K([γGlu-C20 diacid])CNTATCATQRLANFLRHSSPNFGAIPSSTNVGSETY-NH2
modifications: disulfide 2-7; N-terminus assumed
SMILES: CC[C@H](C)[C@H](NC(=O)[C@H](C)NC(=O)CNC(=O)[C@H](Cc1ccccc1)NC(=O)[C@H](CC(N)=O)NC(=O)[C@@H]1CCCN1C(=O)[C@H](CO)NC(=O)[C@H](CO)NC(=O)[C@H](Cc1c[nH]cn1)NC(=O)[C@H](CCCNC(=N)N)NC(=O)[C@H](CC(C)C)NC(=O)[C@H](Cc1ccccc1)NC(=O)[C@H](CC(N)=O)NC(=O)[C@H](C)NC(=O)[C@H](CC(C)C)NC(=O)[C@H](CCCNC(=N)N)NC(=O)[C@H](CCC(N)=O)NC(=O)[C@@H](NC(=O)[C@H](C)NC(=O)[C@@H]1CSSC[C@H](NC(=O)[C@@H](N)CCCCNC(=O)CC[C@H](NC(=O)CCCCCCCCCCCCCCCCCCC(=O)O)C(=O)O)C(=O)N[C@@H](CC(N)=O)C(=O)N[C@@H]([C@@H](C)O)C(=O)N[C@@H](C)C(=O)N[C@@H]([C@@H](C)O)C(=O)N1)[C@@H](C)O)C(=O)N1CCC[C@H]1C(=O)N[C@@H](CO)C(=O)N[C@@H](CO)C(=O)N[C@H](C(=O)N[C@@H](CC(N)=O)C(=O)N[C@H](C(=O)NCC(=O)N[C@@H](CO)C(=O)N[C@@H](CCC(=O)O)C(=O)N[C@H](C(=O)N[C@@H](Cc1ccc(O)cc1)C(N)=O)[C@@H](C)O)C(C)C)[C@@H](C)O
notes: analogue of human amylin; also called compound 27
B3: N^ε1-[(4S)-4-carboxy-4-(19-carboxynonadecanoylamino)butanoyl]-[Glu14,Arg17,Pro21,Pro27,Arg35]-h-amylin (peptide)
peptide: K([γGlu-C20 diacid])CNTATCATQRLAEFLRHSSPNFGAIPSSTNVGSRTY-NH2
modifications: disulfide 2-7 (inferred)
notes: analogue of human amylin; also called compound 51
B4: N^ε1-[(4S)-4-carboxy-4-[[(4S)-4-carboxy-4-(19-carboxynonadecanoylamino)butanoyl]amino]butanoyl]-[Asp14,Arg17,Pro21,Pro27,Asp35]-h-amylin (peptide)
peptide: K([γGlu-γGlu-C20 diacid])CNTATCATQRLADFLRHSSPNFGAIPSSTNVGSDTY-NH2
modifications: disulfide 2-7 (inferred)
notes: analogue of human amylin; also called compound 2
B5: N{Alpha-1}-[(4S)-4-carboxy-4-(19-carboxynonadecanoylamino)butanoyl]-[Glu14,Arg17,Pro21,Pro27,Lys34]-h-amylin (peptide)
peptide: {C20 diacid-γGlu}-KCNTATCATQRLAEFLRHSSPNFGAIPSSTNVGKNTY-NH2
modifications: disulfide 2-7 (inferred)
notes: analogue of human amylin; also called compound 36
B6: N^ε1-[(4S)-4-carboxy-4-[[(4S)-4-carboxy-4-(19-carboxynonadecanoylamino)butanoyl]amino]butanoyl]-[Asp14,Arg17,Pro21,Pro26,Asp35]-h-amylin (peptide)
peptide: K([γGlu-γGlu-C20 diacid])CNTATCATQRLADFLRHSSPNFGAPLSSTNVGSDTY-NH2
modifications: disulfide 2-7 (inferred)
notes: analogue of human amylin; also called compound 1
B7: N^ε1-[(4S)-4-carboxy-4-(19-carboxynonadecanoylamino)butanoyl]-[Arg17,Pro21,Pro27,Lys35]-h-amylin (peptide)
peptide: K([γGlu-C20 diacid])CNTATCATQRLANFLRHSSPNFGAIPSSTNVGSKTY-NH2
modifications: disulfide 2-7 (inferred)
notes: analogue of human amylin; also called compound 35
B8: N^ε1-[(4S)-4-carboxy-4-[[(4S)-4-carboxy-4-(19-carboxynonadecanoylamino)butanoyl]amino]butanoyl]-[Asp14,Arg17,Pro22,Pro26,Asp35]-h-amylin (peptide)
peptide: K([γGlu-γGlu-C20 diacid])CNTATCATQRLADFLRHSSNPFGAPLSSTNVGSDTY-NH2
modifications: disulfide 2-7 (inferred)
notes: analogue of human amylin; also called compound 3
B9: N^α1-[(4S)-4-carboxy-4-(19-carboxynonadecanoylamino)butanoyl]-[Glu14,Arg17,Pro21,Pro25,Pro28,Pro29]-h-amylin (peptide)
peptide: {C20 diacid-γGlu}-KCNTATCATQRLAEFLRHSSPNFGPILPPTNVGSNTY-NH2
modifications: disulfide 2-7 (inferred)
notes: analogue of human amylin; also called compound 6
B10: N^ε1-[2-[2-[2-(19-carboxynonadecanoylamino)ethoxy]ethoxy]acetyl]-[Arg17,Pro21,Pro27]-h-amylin (peptide)
peptide: K([AEEA-C20 diacid])CNTATCATQRLANFLRHSSPNFGAIPSSTNVGSNTY-NH2
modifications: disulfide 2-7 (inferred)
notes: analogue of human amylin; also called compound 43
B11: N^ε-[(4S)-4-carboxy-4-(19-carboxynonadecanoylamino)butanoyl]Lys[Arg1,Arg17,Pro21,Pro27,His35]-h-amylin (peptide)
peptide: K([γGlu-C20 diacid])RCNTATCATQRLANFLRHSSPNFGAIPSSTNVGSHTY-NH2
modifications: disulfide 3-8 (inferred)
notes: analogue of human amylin extended by Lys at the N-terminus; also called compound 44
B12: N^-1-[(4S)-4-carboxy-4-(19-carboxynonadecanoylamino)butanoyl]-Gly[Arg1,Arg17,Pro21,Pro27,His35]-h-amylin (peptide)
peptide: {C20 diacid-γGlu}-GRCNTATCATQRLANFLRHSSPNFGAIPSSTNVGSHTY-NH2
modifications: disulfide 3-8 (inferred)
notes: analogue of human amylin extended by Gly at the N-terminus; also called compound 47
B13: N^-1-[(4S)-4-carboxy-4-(19-carboxynonadecanoylamino)butanoyl]-Gly[Arg1,Arg17,Pro21,Pro27]-h-amylin (peptide)
peptide: {C20 diacid-γGlu}-GRCNTATCATQRLANFLRHSSPNFGAIPSSTNVGSNTY-NH2
modifications: disulfide 3-8 (inferred)
notes: analogue of human amylin extended by Gly at the N-terminus; also called compound 46
B14: N^ε1-[2-[2-[2-[[(4S)-4-carboxy-4-(19-carboxynonadecanoylamino)butanoyl]amino]ethoxy]ethoxy]acetyl]-[Arg17,Pro21,Pro27]-h-amylin (peptide)
peptide: K([AEEA-γGlu-C20 diacid])CNTATCATQRLANFLRHSSPNFGAIPSSTNVGSNTY-NH2
modifications: disulfide 2-7 (inferred)
notes: analogue of human amylin; also called compound 41
B15: N^ε-[2-[2-[2-[[(4S)-4-carboxy-4-(19-carboxynonadecanoylamino)butanoyl]amino]ethoxy]ethoxy]acetyl]Lys[Arg1,Arg17,Pro21,Pro27,His35]-h-amylin (peptide)
peptide: K([AEEA-γGlu-C20 diacid])RCNTATCATQRLANFLRHSSPNFGAIPSSTNVGSHTY-NH2
modifications: disulfide 3-8 (inferred)
notes: analogue of human amylin extended by Lys at the N-terminus; also called compound 45
B16: N^ε1-19-carboxynonadecanoyl-[Arg17,Pro21,Pro27]-h-amylin (peptide)
peptide: K(C20 diacid)CNTATCATQRLANFLRHSSPNFGAIPSSTNVGSNTY-NH2
modifications: disulfide 2-7 (inferred)
notes: analogue of human amylin; also called compound 42
B17: N^α1-[2-[2-[2-[[2-[2-[2-[[(4S)-4-carboxy-4-(19-carboxynonadecanoylamino)butanoyl]amino]ethoxy]ethoxy]acetyl]amino]ethoxy]ethoxy]acetyl]-[Arg17,Pro21,Pro27]-h-am … (peptide)
peptide: KCNTATCATQRLANFLRHSSPNFGAIPSSTNVGSNTY
modifications: C20 diacid-gGlu-2xOEG on the alpha amino group of the N-terminal residue (Lys 1); disulfide bridge between the two Cys residues; C-terminal amide
notes: analogue of human amylin; also called compound 24

biological target: T1, rat amylin receptor (rat calcitonin …); assay: SPA competition with 125I-rat amylin, membranes of BHK cells with rat calcitonin receptor + rat RAMP3 (Assay VI)

| Binder | IC50 [nM] |
| --- | --- |
| B1 | 0.558 |
| B2 | 0.614 |
| B3 | 0.523 |
| B4 | 0.295 |
| B5 | 1.86 |
| B6 | 1.3 |
| B7 | 0.948 |
| B8 | 1 |
| B9 | 2.37 |
| B10 | 0.11 |
| B11 | 0.369 |
| B12 | 0.203 |
| B13 | 0.33 |
| B14 | 1.37 |
| B15 | 0.623 |
| B16 | 0.603 |
| B17 | 3.01 |

biological target: T2, rat calcitonin receptor; assay: SPA competition with 125I-calcitonin, membranes of BHK cells with rat calcitonin receptor (Assay VIII)

| Binder | IC50 [nM] |
| --- | --- |
| B1 | 112 |
| B2 | 90.2 |
| B3 | 62 |
| B4 | 108 |
| B5 | 60.1 |
| B6 | 135 |
| B7 | 61.7 |
| B8 | 16.7 |
| B9 | 51.5 |
| B10 | 7.6 |
| B11 | 19.6 |
| B12 | 17.1 |
| B13 | 46.8 |
| B14 | 74.1 |
| B15 | 41.8 |
| B16 | 15.3 |
| B17 | 350 |

biological target: T3, human calcitonin receptor; assay: IC50 on human calcitonin receptor divided by IC50 on human amylin receptor (SPA competition)
Outline: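 Membranes (35 ng/μL final) + SPA beads, 50 mM Hepes pH 7.4 buffer with 1 mM CaCl2, 5 mM MgCl₂, 0.1% OA, 0.02% Tween20; 120 min, 25° C, shaking; centrifuged, counted; IC₅₀ by one-site binding competition.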

| Binder | Ratio hCT/hAmylin binding |
| --- | --- |
| B1 | 69.7 |
| B2 | 41.3 |
| B3 | 37.5 |
| B4 | 47.5 |
| B5 | 15.7 |
| B6 | 27.6 |
| B7 | 50.3 |
| B8 | 17.3 |
| B9 | 20 |
| B10 | 34.7 |
| B11 | 17.7 |
| B12 | 44.9 |
| B13 | 48.9 |
| B14 | 49.9 |
| B15 | 26.8 |
| B16 | 30.7 |
| B17 | 90 |

biological target: T2, rat calcitonin receptor; assay: IC50 on rat calcitonin receptor divided by IC50 on rat amylin receptor (SPA competition)

| Binder | Ratio rCT/rAmylin binding |
| --- | --- |
| B1 | 201 |
| B2 | 147 |
| B3 | 119 |
| B4 | 366 |
| B5 | 32.4 |
| B6 | 104 |
| B7 | 65.1 |
| B8 | 16.7 |
| B9 | 21.7 |
| B10 | 69.1 |
| B11 | 53.3 |
| B12 | 84.3 |
| B13 | 142 |
| B14 | 54 |
| B15 | 67.1 |
| B16 | 25.4 |
| B17 | 116 |
